Test results as given in US20160083733.

Key:
[1] = target: GST-PDX1 T214A (bacterially purified), P52946
[2] = target: GST-PDX1 T11A (bacterially purified), P52946
[3] = target: Purified recombinant human PDX-1 (Abcam), P52945
[4] = target: GST-PDX1 WT (bacterially purified), P52946
[5] = target: GST-PDX1 T231A (bacterially purified), P52946
[6] = target: GST-PDX1 T126A (bacterially purified), P52946
[7] = target: GST-PDX1 T155A (bacterially purified), P52946
[8] = target: GST-PDX1 T152A (bacterially purified), P52946
Chain of GST-PDX1 T152A (bacterially purified), P52946 (P52946 whole entry T152A, looked up): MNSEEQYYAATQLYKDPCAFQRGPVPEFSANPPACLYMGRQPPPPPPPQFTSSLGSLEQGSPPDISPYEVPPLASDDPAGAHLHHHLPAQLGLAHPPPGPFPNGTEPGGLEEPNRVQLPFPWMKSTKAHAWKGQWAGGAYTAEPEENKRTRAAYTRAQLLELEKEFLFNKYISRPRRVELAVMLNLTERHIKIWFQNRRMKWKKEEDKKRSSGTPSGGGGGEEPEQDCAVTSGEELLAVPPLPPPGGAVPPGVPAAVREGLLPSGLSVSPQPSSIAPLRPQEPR

Chain of GST-PDX1 T214A (bacterially purified), P52946 (P52946 whole entry T214A, looked up): as the sequence (P52946 whole entry T152A, looked up) above, with A152T, T214A counted along it
Chain of GST-PDX1 WT (bacterially purified), P52946 (P52946 whole entry): as the sequence (P52946 whole entry T152A, looked up) above, with A152T counted along it
Chain of GST-PDX1 T155A (bacterially purified), P52946 (P52946 whole entry T155A, looked up): as the sequence (P52946 whole entry T152A, looked up) above, with A152T, T155A counted along it
Chain of GST-PDX1 T11A (bacterially purified), P52946 (P52946 whole entry T11A, looked up): as the sequence (P52946 whole entry T152A, looked up) above, with T11A, A152T counted along it
Chain of GST-PDX1 T231A (bacterially purified), P52946 (P52946 whole entry T231A, looked up): as the sequence (P52946 whole entry T152A, looked up) above, with A152T, T231A counted along it
Chain of Purified recombinant human PDX-1 (Abcam), P52945 (P52945 whole entry): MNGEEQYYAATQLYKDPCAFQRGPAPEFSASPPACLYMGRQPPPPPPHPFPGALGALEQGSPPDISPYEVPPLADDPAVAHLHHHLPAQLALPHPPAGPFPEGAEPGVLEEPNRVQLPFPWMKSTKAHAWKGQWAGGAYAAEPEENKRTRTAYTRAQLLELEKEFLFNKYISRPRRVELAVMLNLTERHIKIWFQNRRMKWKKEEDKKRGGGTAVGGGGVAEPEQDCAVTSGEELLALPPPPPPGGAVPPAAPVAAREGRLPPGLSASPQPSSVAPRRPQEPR
Chain of GST-PDX1 T126A (bacterially purified), P52946 (P52946 whole entry T126A, looked up): as the sequence (P52946 whole entry T152A, looked up) above, with T126A, A152T counted along it

B1: Purified human active MST1 (Upstate Biotechnology) (protein)
chain: METVQLRNPPRRQLKKLDEDSLTKQPEEVFDVLEKLGEGSYGSVYKAIHKETGQIVAIKQVPVESDLQEIIKEISIMQQCDSPHVVKYYGSYFKNTDLWIVMEYCGAGSVSDIIRLRNKTLTEDEIATILQSTLKGLEYLHFMRKIHRDIKAGNILLNTEGHAKLADFGVAGQLTDTMAKRNTVIGTPFWMAPEVIQEIGYNCVADIWSLGITAIEMAEGKPPYADIHPMRAIFMIPTNPPPTFRKPELWSDNFTDFVKQCLVKSPEQRATATQLLQHPFVRSAKGVSILRDLINEAMDVKLKRQESQQREVDQDDEENSEEDEMDSGTMVRAVGDEMGTVRVASTMTDGANTMIEHDDTLPSQLGTMVINAEDEEEEGTMKRRDETMQPAKPSFLEYFEQKEKENQINSFGKSVPGPLKNSSDWKIPQDGDYEFLKSWTVEDLQKRLLALDPMMEQEIEEIRQKYQSKRQPILDAIEAKKRRQQNF
Question: What does the source list for B1?
Answer: in vitro kinase assay, pan-phospho threonine western blot [1]: With the exception of T11A, PDX1-WT and other mutants were efficiently threonine phosphorylated; in vitro kinase assay, pan-phospho threonine western blot [2]: With the exception of T11A, PDX1-WT and other mutants were efficiently threonine phosphorylated; in vitro kinase assay (32P autoradiography; western blot with phospho-specific antibody) [3]: In vitro kinase assays showed that MST1 efficiently phosphorylated PDX1; in vitro kinase assay, pan-phospho threonine western blot [4]: With the exception of T11A, PDX1-WT and other mutants were efficiently threonine phosphorylated; in vitro kinase assay, pan-phospho threonine western blot [5]: With the exception of T11A, PDX1-WT and other mutants were efficiently threonine phosphorylated; in vitro kinase assay, pan-phospho threonine western blot [6]: With the exception of T11A, PDX1-WT and other mutants were efficiently threonine phosphorylated; in vitro kinase assay, pan-phospho threonine western blot [7]: With the exception of T11A, PDX1-WT and other mutants were efficiently threonine phosphorylated; in vitro kinase assay, pan-phospho threonine western blot [8]: With the exception of T11A, PDX1-WT and other mutants were efficiently threonine phosphorylated
